Consider one molecule from US7648964B2, “Use of lacritin in promoting ocular cell survival” (University of Virginia Patent Foundation, priority 2004, dated 2010).

Some results are limits rather than exact numbers.

Assay [1] concerns human glioma (U-1242-MG) cells. Briefly: 3H-thymidine uptake mitogenesis assay. Type of assay: cell-based. To be noted: even at higher doses.
In assay [2] the test system is mouse fibroblast (NIH/3T3) cells. As to the kind of experiment: 3H-thymidine uptake mitogenesis assay. Type of assay: cell-based.
The subject of assay [3] is human glioma (U-251-MG) cells. As to the kind of experiment: 3H-thymidine uptake mitogenesis assay. Type of assay: cell-based. To be noted: even at higher doses.
For assay [4], the system named is human epidermal (A431) cells. Briefly: 3H-thymidine uptake mitogenesis assay. Type of assay: cell-based.
Assay [5] relates to MUC16. Briefly: MUC16 blot of human corneal epithelial cells. Type of assay: cell-based. To be noted: 10 nM. The source says:
MUC16 is an important mucin on the ocular surface. Mucin contributes to the tear film, is important for wetting the ocular surface, and is reduced in Sjogren's syndrome patients. […] Cells were blotted for MUC16.

Assay [6] concerns tyrosine phosphorylation of phosphoproteins in HSG cells. Briefly: Phosphotyrosine blotting in HSG cells. Type of assay: cell-based, human. The following applies: within the first minute. How it is done: For phosphotyrosine blotting and mitogenesis assays, cells in serum-containing media were seeded overnight in 24-well plates at a density of 0.5×10^5 cells/mm^2 corresponding to 20-30% confluency after cell attachment, incubated in serum-free media without supplements for 24 h (phosphotyrosine) or washed with serum-free media without supplements three times (mitogenesis) and incubated with lacritin (1-1000 nM), or positive controls EGF (1.6 nM) and 10% fetal bovine serum, or negative controls bovine serum albumin or no additive in serum-free media without supplements for the indicated times (phosphotyrosine) or 30 h (mitogenesis). […] After washing, bound antibodies were detected with peroxidase-labeled secondary antibody and ECL. […] Incorporation was stopped with ice-cold phosphate buffered saline and followed by addition of cold and then room temperature trichloracetic acid (10%) for 10 min each, washing of cells with phosphate buffered saline, solubilization with 1 N sodium hydroxide, neutralization with 1 N hydrochloric acid, addition of scintillation fluid and then quantitation in a scintillation counter. […] Seventy-two hours post-transfection, mitogenesis was assessed by co-addition of 10 […] lacritin and [^3H]-thymidine (2 mCi/ml) (Amersham, Piscataway N.J.) for 24 hrs. […]

Assay [7] has as its system PLD. As to the kind of experiment: Endogenous PLD activity in HSG cells. Type of assay: cell-based, human. The following applies: bell-shaped activation curve. As for the experimental part:
We measured endogenous PLD activity after lacritin addition and obtained a bell-shaped activation curve that was optimal at 10 nM lacritin, thus recapitulating the same dose dependency observed for mitogenesis, PKCα translocation and PKCα dephosphorylation. To determine whether PKCα was upstream of PLD in lacritin signaling, cells were transfected with D7 siRNA. […] Transiently hypophosphorylated perinuclear Golgi PKCα appears to have at least two roles. It complexes with PLCγ2 leading to IP3 generation and calcium mobilization. It also activates PLD1.

For assay [8], the system named is HSG cells. Briefly: FACS analysis of apoptosis (sub G0/G1) of HSG cells in nutrient depleted medium. Type of assay: cell-based, human. As for the experimental part:
HSG cells were cultured for different times in alpha-MEM medium, with or without lacritin (0.4 nM), then fixed with ice-old 70% ethanol and stained with propidium iodide at saturating condition, and examined by FACS. FIG. 3A is a bar graph of the resulting data plotting the number of cells entering apoptosis (the sub G0/G1 population) vs. time. After 24 hrs, cells without lacritin show very large DNA fragmentation or apoptosis. FIGS. 3B and 3C are graphic representations of flow cytometry readings showing that significant DNA fragmentation occurs in the cells cultured in the absence of lacritin (a sub G0/G1 population is indicated as a left shoulder of the large peak of FIG. 3B) but not present in FIG. 3C).
Subsequent flow cytometry (FACS) analysis was carried out to monitoring the time course of cell death and survival promotion function of lacritin. […] Lacritin protected cells from death in nutrient depleted medium (alpha MEM) up to 96 hours or longer. Cells cultured in the absence of lacritin undergo apoptosis starting at about 24 hours and over 50% cells are apoptotic after 48 hours of culture.
On the technique in general: Flow cytometry measures light scatter and fluorescence of single cells or particles in a stream.

Assay [9] concerns human corneal epithelial cells. As to the kind of experiment: Calcium signaling in human corneal epithelial cells (Fluo-3AM). Type of assay: cell-based. The following applies: HCE cells. As for the experimental part: Freshly isolated rat lacrimal acinar cells, and HSG (human salivary gland) ductal and HCE (human corneal epithelial) cell lines were used to study lacritin function. For secretion studies, rat acinar cells were plated serum-free overnight on wells co-coated with 0.05 μM laminin 1 (to ensure adhesion) and 0 to 20 μM lacritin, or alternatively with laminin-1 (0.05 μM) and treated the next day with serum-free medium containing 0 to 162 ng/ml of soluble lacritin for four hours. Unstimulated and stimulated (carbachol 10^−4 M/VIP 10^−8 M) secretions were then collected, assessed (peroxidase assay) and normalized to μg cellular DNA. To study tyrosine phosphorylation, overnight serum-free cultures of both rat lacrimal acinar and HSG cells were washed and treated with 10 ng/ml of soluble lacritin for 0.5, 2.5, 10, and 30 minutes. Py(20) anti-phosphotyrosine antibody immunoprecipitation of cell lysates was then examined in Western blots of 7% SDS PAGE gels using Py(20) and ECL for detection. […] Using an inverted Zeiss 510 LSM for visualization, 50 second baseline images were first recorded. While the laser was running, lacritin was added (final concentration 4 and 40 ng/ml) and the response continually monitored every 786 msec for a minimum of 200 sec.

B1: lacritin: recombinant human lacritin from E. coli; mature 119 residue fragment (SEQ ID NO:10) of native lacritin SEQ ID NO:4 (protein, listed as Homo sapiens)
chain: EDASSDSTGADPAQEAGTSKPNEEISGPAEPASPPETTTTAQETSAAAVQGTAKVTSSRQELNPLKSIVEKSILLTEQALAKAGKGMHGGVPGGKQFIENGSEFAQKLLKKFSLLKPWA
Consider B1, for which the mitogenesis entry in assay [1], in [2], in assay [3] and in assay [4] was “not mitogenic” throughout. For the same molecule, the MUC16 secretion entry in assay [5] was “greatly enhanced”. For the same molecule, in assay [6], the “tyrosine phosphorylation of at least nine phosphoproteins” value was “transient tyrosine phosphorylation”. Besides, in [7], the “concentration of optimal PLD activation” value came out at 10 nM. Moreover, the DNA fragmentation entry in assay [8] (lacritin 10 ng/ml, alpha MEM) is “no noticeable DNA fragmentation”. In addition, in assay [8] (nutrient depleted medium (alpha MEM)), the “duration of protection from death” value was at least 96 h. Besides, the “rapidity of lacritin-dependent calcium mobilization” value in assay [9] is 20 to 30 s. The calcium signals result in assay [9] (serum-free) was “rapid and sustained calcium waves”.
